The values that follow come from patent US6617118B2, “Monoclonal antibody for analysis and clearance of polyethylene glycol and polyethylene glycol-modified molecules” (priority 1999, dated 2003).

The nature of data set [1]: βG enzymatic activity of PEG-modified βG and conjugates. Conditions: purified by gel filtration, 9.2 sPEG groups/βG subunit. It is filed as biochemical. (In general: SEC sorts molecules by how far they enter the pores of the column.)
The conditions of data set [2]: 150 μg i.v., after a period of rapid clearance.
Protocol: Pharmacokinetics of βG-pPEG: Male BALB/c mice were i.v injected with 150 μg βG-pPEG. Serum was isolated from blood samples that were periodically removed from the tail vein of the mice. The concentration of βG-pPEG in serially-diluted serum samples was assayed in triplicate by the AGP3 ELISA. The concentration of βG-pPEG was determined by comparison to a standard curve generated with known concentrations of βG-pPEG.
A sandwich ELISA was developed in which AGP3 was employed for the capture step and AGP3-biotin used for detection. […] Binding of βG-pPEG to the immobilized AGP3 was detected by sequential addition of AGP3-biotin and streptavidin-HRP. Results represent mean values of triplicate determinations. Bars indicate the standard error of the mean. […] The effect of serum on the ELISA was examined by adding 10% mouse serum to samples before assay. […] The AGP3 ELISA was employed to measure the pharmacokinetics of βG-pPEG in mice. In FIG. 7, a BALB/c mouse was i.v. injected with 150 μg βG-pPEG. Blood samples were periodically removed from the tail vein and assayed for βG-pPEG concentration by ELISA.
The conditions of data set [3]: pH values less than 5.0 or greater than 9.0; 4 h at 37° C., assay at pH 7.0.
Protocol: To test the pH stability of βG, enzyme in βG buffer was adjusted to pH values ranging from 3-11 for 4 h at 37° C. before neutralization to pH 7.0 and assay of enzymatic activity.
Another data set concerns immobilized AGP3. Description: AGP3 sandwich ELISA (AGP3 capture, AGP3-biotin detection). The following applies: unmodified protein in PBS. The format is binding.

Protocol for immobilized AGP3: AGP3 ELISA: Maxisorp™ 96-well microplates (Nunc™, Roskilde, Denmark) were coated with 50 μL/well of AGP3 (200 μg/ml in PBS) for 3 h at 37° C. Plates were blocked with 2% skim milk in PBS overnight and washed twice with PBS/T (0.05% Tween-20 in PBS) before serial dilutions of βG or βG-pPEG (50 μL in dilution buffer) were added to wells for 1.5 h at room temperature. Plates were washed 6 times with PBS/T and 50 μL/well AGP3-biotin (20 μg/ml in dilution buffer) was added for 1.5 h at room temperature. Plates were again washed with PBS/T and 50 μL/well streptavidin-HRP (1:1000) was added for 1 h at room temperature. Plates were washed before 100 μL/well ABTS substrate was added for 30 min at room temperature. Absorbance (405 nm) of wells was measured in a microtiter plate reader. The effect of serum on the AGP3 ELISA was examined by performing the assay in the presence of 10% serum isolated from healthy BALB/c mice.
A sandwich ELISA was developed in which AGP3 was employed for the capture step and AGP3-biotin used for detection. In FIG. 6, serial dilutions of βG-pPEG in PBS (◯) or 10% mouse serum (□) as well as βG in PBS (Δ) were incubated in a microtiter plate coated with AGP3. Binding of βG-pPEG to the immobilized AGP3 was detected by sequential addition of AGP3-biotin and streptavidin-HRP. Results represent mean values of triplicate determinations. […]

B1: βG-sPEG: β-glucuronidase modified with sPEG (conjugate, UniProt P05804 1-603, looked up)
Beta-glucuronidase: MLRPVETPTREIKKLDGLWAFSLDRENCGIDQRWWESALQESRAIAVPGSFNDQFADADIRNYAGNVWYQREVFIPKGWAGQRIVLRFDAVTHYGKVWVNNQEVMEHQGGYTPFEADVTPYVIAGKSVRITVCVNNELNWQTIPPGMVITDENGKKKQSYFHDFFNYAGIHRSVMLYTTPNTWVDDITVVTHVAQDCNHASVDWQVVANGDVSVELRDADQQVVATGQGTSGTLQVVNPHLWQPGEGYLYELCVTAKSQTECDIYPLRVGIRSVAVKGEQFLINHKPFYFTGFGRHEDADLRGKGFDNVLMVHDHALMDWIGANSYRTSHYPYAEEMLDWADEHGIVVIDETAAVGFNLSLGIGFEAGNKPKELYSEEAVNGETQQAHLQAIKELIARDKNHPSVVMWSIANEPDTRPQGAREYFAPLAEATRKLDPTRPITCVNVMFCDAHTDTISDLFDVLCLNRYYGWYVQSGDLETAEKVLEKELLAWQEKLHQPIIITEYGVDTLAGLHSMYTDMWSEEYQCAWLDMYHRVFDRVSAVVGEQVWNFADFATSQGILRVGGNKKGIFTRDRKPKSAAFLLQKRWTGMNFGEKPQQGGKQ
modifications: sPEG modified
As to B1, in data set [1], the “original enzymatic activity possessed” value stood at 69%.

B2: βG-pPEG: β-glucuronidase modified with pPEG (conjugate, UniProt P05804 1-603, looked up)
Beta-glucuronidase: MLRPVETPTREIKKLDGLWAFSLDRENCGIDQRWWESALQESRAIAVPGSFNDQFADADIRNYAGNVWYQREVFIPKGWAGQRIVLRFDAVTHYGKVWVNNQEVMEHQGGYTPFEADVTPYVIAGKSVRITVCVNNELNWQTIPPGMVITDENGKKKQSYFHDFFNYAGIHRSVMLYTTPNTWVDDITVVTHVAQDCNHASVDWQVVANGDVSVELRDADQQVVATGQGTSGTLQVVNPHLWQPGEGYLYELCVTAKSQTECDIYPLRVGIRSVAVKGEQFLINHKPFYFTGFGRHEDADLRGKGFDNVLMVHDHALMDWIGANSYRTSHYPYAEEMLDWADEHGIVVIDETAAVGFNLSLGIGFEAGNKPKELYSEEAVNGETQQAHLQAIKELIARDKNHPSVVMWSIANEPDTRPQGAREYFAPLAEATRKLDPTRPITCVNVMFCDAHTDTISDLFDVLCLNRYYGWYVQSGDLETAEKVLEKELLAWQEKLHQPIIITEYGVDTLAGLHSMYTDMWSEEYQCAWLDMYHRVFDRVSAVVGEQVWNFADFATSQGILRVGGNKKGIFTRDRKPKSAAFLLQKRWTGMNFGEKPQQGGKQ
modifications: pPEG modified
As to B2, the “first-order half-life of elimination from the circulation” value in data set [2] turned out to be 19.2 h.

B3: Eschericia coli β-glucuronidase (protein, UniProt P05804 1-603, looked up)
Beta-glucuronidase: MLRPVETPTREIKKLDGLWAFSLDRENCGIDQRWWESALQESRAIAVPGSFNDQFADADIRNYAGNVWYQREVFIPKGWAGQRIVLRFDAVTHYGKVWVNNQEVMEHQGGYTPFEADVTPYVIAGKSVRITVCVNNELNWQTIPPGMVITDENGKKKQSYFHDFFNYAGIHRSVMLYTTPNTWVDDITVVTHVAQDCNHASVDWQVVANGDVSVELRDADQQVVATGQGTSGTLQVVNPHLWQPGEGYLYELCVTAKSQTECDIYPLRVGIRSVAVKGEQFLINHKPFYFTGFGRHEDADLRGKGFDNVLMVHDHALMDWIGANSYRTSHYPYAEEMLDWADEHGIVVIDETAAVGFNLSLGIGFEAGNKPKELYSEEAVNGETQQAHLQAIKELIARDKNHPSVVMWSIANEPDTRPQGAREYFAPLAEATRKLDPTRPITCVNVMFCDAHTDTISDLFDVLCLNRYYGWYVQSGDLETAEKVLEKELLAWQEKLHQPIIITEYGVDTLAGLHSMYTDMWSEEYQCAWLDMYHRVFDRVSAVVGEQVWNFADFATSQGILRVGGNKKGIFTRDRKPKSAAFLLQKRWTGMNFGEKPQQGGKQ
notes: recombinant Eschericia coli-derived β-glucuronidase
For the molecule B3, in data set [3], the “pH stability of enzymatic activity” value was “irreversibly deactivated”. Besides, in the data set on immobilized AGP3, the “signal in AGP3 sandwich ELISA” value is listed as “lack of signal”.
